{"source": "paper PMC5137453", "about": "(Nucleic Acids Research, 2016)", "binders": {"B1": {"name": "8-nt ssDNA (5'-TTTTTTGT-3') (ssDNA)", "DNA": "TTTTTTGT"}, "B2": {"name": "CPS-6 H148A (enzyme)", "chain": "PSRSAEIMKHGYPGFTNVRTYEDFVLSYDYKTRTAHWVCEHLTPERLKHAEGVDRKLCEFKPDITFPQKFLSQNTDYKCSGFDRGALAAAGNHRKSQLAVDQTFYLSNMSPQVGRGFNRDKWNDLEMHCRRVAKKMINSYIITGPLYLPKLEGDGKKYIKYQVIGDNNVAVPTHFFKVALFEVTPGKFELESYILPNAVIEDTVEISKFHVPLDAVERSAGLEIFARLDPKSIVKENGAKKGG"}, "B3": {"name": "CPS-6 H148A/F122A (enzyme)", "chain": "B2 chain with F60A"}, "B4": {"name": "48-nt ssDNA (ssDNA)", "DNA": "ACGCTGCCGAATTCTGGCGTTAGGAGATACCGATAAGCTTCGGCTTAA"}}, "key": {"CPS-6 H148A/F122A": {"target": "T1, CPS-6 H148A/F122A (Caenorhabditis elegans, UniProt Q95NM6 63-305, H148A;F122A)", "T1 sequence": "B2 chain with F60A", "experiment": "X-ray crystallography"}, "SEC": {"target": "the molecule itself", "experiment": "SEC"}, "CPS-6 H148A/P207E": {"target": "T2, CPS-6 H148A/P207E (Caenorhabditis elegans, UniProt Q95NM6 63-305, H148A;P207E)", "T2 sequence": "B2 chain with P145E", "experiment": "filter binding"}, "CPS-6 H148A": {"target": "T3, CPS-6 H148A (Caenorhabditis elegans, UniProt Q95NM6 63-305, H148A)", "T3 sequence": "B2 chain", "experiment": "filter binding"}, "CPS-6 H148A/K131D/F132N": {"target": "T4, CPS-6 H148A/K131D/F132N (Caenorhabditis elegans, UniProt Q95NM6 63-305, H148A;K131D;F132N)", "T4 sequence": "B2 chain with K69D, F70N", "experiment": "filter binding"}}, "note": "Changes are numbered by the printed parent chain. Numbers in names are those of the source."}
{"binder": "B1", "values": [{"measurement": "binding result", "setting": "CPS-6 H148A/F122A", "result": "binds"}]}
{"binder": "B2", "values": [{"measurement": "stoichiometry N", "setting": "SEC", "result": 2}]}
{"binder": "B3", "values": [{"measurement": "stoichiometry N", "setting": "SEC", "result": 2}]}
{"binder": "B4", "values": [{"measurement": "Kd", "setting": "CPS-6 H148A/P207E", "result": 804, "unit": "nM"}, {"measurement": "Kd", "setting": "CPS-6 H148A", "result": 159, "unit": "nM"}, {"measurement": "Kd", "setting": "CPS-6 H148A/K131D/F132N", "result": 659, "unit": "nM"}]}
